Measurements: patent US20230322857A1, “RECOMBINANTLY ENGINEERED POLYPEPTIDES CAPABLE OF RECYCLING NONCANONICAL COFACTORS” (The Regents of the University of California, priority 2022, published 2023)

Experiments:
[1] = Steady-state kinetics of TS-PTDH variants with NAD^+; format: biochemical; conditions: 100 mM MOPS, pH 7.25, 10 mM sodium phosphite, varied cofactor concentrations; n = 3
Procedure: (§1) Purification and Characterization of TS-PTDH Variants. The E. coli BL21(DE3) strains harboring pQElac plasmids encoding the TS-PTDH or TS-PTDH variants were grown in 2×YT media with kanamycin and ampicillin at 37° C. The IPTG-inducible expression, Ni-affinity purification, and protein concentration determination was conducted as described above.
(§2) The steady-state kinetic parameters toward the coenzymes were measured by spiking purified protein into a 100 μL reaction mixture containing 100 mM MOPS, pH 7.25, 10 mM sodium Pt, and varied cofactor concentrations from 0.02 mM to 5 mM at 25° C. The kinetic parameters were measured by monitoring the […] of reduced coenzyme at 340 nm. Data were fitted to the Michaelis-Menten equation to generate estimates of KM and kcat values.

[2] = Steady-state kinetics of TS-PTDH variants with NADP^+; format: biochemical; conditions: 100 mM MOPS, pH 7.25, 10 mM sodium phosphite, varied cofactor concentrations; n = 3
Procedure: as §1, §2

[3] = Steady-state kinetics of TS-PTDH variants with NMN^+; format: biochemical; conditions: enzyme could not be saturated; 100 mM MOPS, pH 7.25, 10 mM sodium phosphite
Procedure: as §1, §2

[4] = Specific activity of TS-PTDH variants with NMN^+; format: biochemical; conditions: 100 mM MOPS pH 7.25, 10 mM sodium Pt, 4 mM cofactor, 25° C.
Procedure: as §1
The specific activities of TS-PTDH and variants were measured with the following methods. Briefly, the reaction mixture contained 100 mM MOPS buffer, pH 7.25, 10 mM sodium Pt, and 4 mM cofactor (NAD^+, NADP^+, or NMN^+). The formation of reduced coenzyme was measured by light absorption at 340 nm in a 96-well plate at 25° C. Absorption was correlated to a molar basis using the extinction coefficient (ε) of 6.22 mM^−1 cm^−1 for each cofactor.

[5] = BNA(H)-mediated PTDH biotransformation with TsOYE; format: biochemical; conditions: 0, 5, 10, or 20 mM BNA^+
Procedure: BNA(H)-Mediated PTDH Biotransformation. Reactions with BNA^+, see FIG. 10D, contained 100 mM MOPS-NaOH at pH 7.6, 10 mM KIP, 100 mM sodium phosphite, and 2% v/v DMSO. BNA^+Cl^−, prepared by refluxing equimolar amounts of nicotinamide and benzyl chloride in acetonitrile overnight, followed by precipitation with diethyl ether on ice was supplied to the reactions at final concentrations of 0, 5, 10, or 20 mM. Reactions were initiated by spiking TsOYE and the appropriate TS-PTDH variant to a final concentration of 10 μM, each. Reaction mixtures were incubated at 30° C. on a Thermomixer C (Eppendorf) with shaking at 900 rpm for 24 h, extracted with 500 μL ethyl acetate containing 5 mM n-dodecane, and analyzed by GC-FID. The cycling system with no BNA was used to determine the background activity of the cycling systems. This value was subtracted from the final levodione concentrations in the 5-, 10-, and 20-mM samples to determine the BNA(H)^− specific levodione production. Concentrations of levodione product were determined using a calibration line (0-10 mM, 6 levels, using n-dodecane as internal standard). The y-intercept of the calibration line was forced through 0.
For BNA(H)-mediated reactions, gas chromatography analyses were performed on a GC-2010 (Shimadzu, Japan) equipped with an AOC-20i auto injector and a flame ionization detector (FID), using a CP-Sil 5 column (25 m×0.25 mm×[…]). 1 μL of sample was injected with a split ratio of 100:1 and injector at 340° C. The FID was maintained at 360° C. Nitrogen was used as the carrier gas, with a linear velocity of 30 cm/s. The oven was held at 135° C. for 1 min, ramped at 15° C./min to 215° C., then 30° C./min to 345° C., and held at 345° C. for 1 min.
Expression and Purification of Proteins for BNA(H)-Mediated Biotransformation Reactions. E. coli BL21(DE3) strains were transformed with the plasmids containing the TS-PTDH variants and grown on LB-agar plates containing ampicillin at 37° C. overnight. An overnight culture, 15 mL LB supplemented with ampicillin, was inoculated with a single colony, and grown at 37° C., 170 rpm overnight. 2 L baffled shake-flasks with 250 mL of 2×YT media containing 200 μg/mL ampicillin, were inoculated with the overnight culture, grown at 37° C., 170 rpm until OD600 of ˜1.0, induced with IPTG (0.5 mM), and grown at 30° C. and 170 rpm for 24 h. Cells were harvested by centrifugation at 18,000×g, 4° C., 10 min and stored at −20° C. until purification.
The pellet was resuspended in four volumes loading buffer (50 mM sodium phosphate, 300 mM sodium chloride, 10 mM imidazole, pH 7.7), and lysed on ice by sonication (Branson sonifier 250; 15 min total, 40% duty cycle, output control 3.5, 2 mm tip). The lysate was clarified (21,000×g, 4° C., 30 min followed by 0.2 μm filtration), and loaded (1 mL/min) onto a Nickel-HisTrap FF crude (1 mL) column, washed with loading buffer (12 column volumes, CV), followed by a step with 10% elution buffer (loading buffer containing 250 mM imidazole; 12 CV). The protein was then eluted with 100% elution buffer and collected in fractions of 0.5 mL. Fractions containing protein were combined and dialyzed against ice-cold dialysis buffer (50 mM sodium phosphate, pH 7.7, 800 mL); the buffer was renewed after the first 2 h of dialysis. Following the dialysis, the protein was mixed with glycerol (20% v/v final concentration). Enzyme concentrations were estimated by the absorbance at 280 nm (non-denatured protein), using predicted extinction coefficients (wild type and LY-13: 26470, LY-7: […]; web.expasy.org/protparam/). The protein was aliquoted, flash frozen in liquid nitrogen, and stored at −80° C. until use. […]

E. coli SHuffle strain = assay: Recapitulation of growth restoration with TS-PTDH variants in SHuffle strain; format: cell-based, Escherichia coli; conditions: spotted onto agar selection plates
Procedure: Selection of TS-PTDH Library. A total of 50 μL pre-made SHuffle/pLZ311 or SHuffle/pLZ312 electro-competent cells were transformed with 2 μL TS-PTDH A155N-E175-A176-L208 NNK library DNA (pLZ316) via electroporation as described above. After rescue in SOC media for 1 h, cultures were combined in 10 mL 2×YT with 10 g/L glucose, 0.5% arabinose, kanamycin and ampicillin. 0.2, or 1 μL of culture was immediately taken from the culture and plated on an 2×YT agar plates with kanamycin and ampicillin. The plate was incubated at 37° C. overnight, and the number of colonies formed was counted to estimate the library size. The liquid cultures were incubated at 37° C. with shaking for 10 h. Cells (1 mL) were washed 3 times and re-suspended in M9 Buffer. Targeted serial dilutions of cells were prepared in M9 buffer and 5 μL aliquots were dispensed in series on an agar plate of M9 selection media containing 0.5 mM diamide, 5 or 1 g/L yeast extract, 10 g/L glucose, 0.5% arabinose, 0.5 mM IPTG, 10 g/L sodium phosphite, kanamycin, ampicillin, and 5 mM NMN^+. Selection plates were incubated at 37° C., and photographs were taken to document growth progress. The independent transformants sampled was calculated as 2.4×10^6 and 2.5×10^6 colonies when plated on 5 and 1 g/L yeast extract, respectively. TS-PTDH and the template of the library, TS-PTDH A155N, were cultured in the same conditions as controls. The colonies were numbered by the order of appearance. The selected cells were re-streaked on fresh agar plate with identical media and incubated until single colonies formed on the plate. Variants that cannot forma single colony may be false positives. After extracting the plasmids from each re-streaked colony, the chosen TS-PTDH variants were amplified and moved into the pQElac vector containing a N-terminal 6×His tag for protein purification and characterization. […] 2 μL of a serial dilution of cells were deposited onto a growth selection plate and grown at 37° C.

[6] = reported values; cited from earlier work

| Molecule | Km [1] | NAD^+ kcat [1] | Km [2] | NADP^+ kcat [2] | Km [3] | NMN^+-dependent specific activity [4] | response of biotransformation efficiency to BNA^+ concentration [5] | growth restoration, co-expression with NMNH-specific Gor Ortho (E. coli SHuffle strain) | growth, co-expression with wild type Ec Gor (E. coli SHuffle strain) | TTN with NAD^+ [6] |
| --- | --- | --- | --- | --- | --- | --- | --- | --- | --- | --- |
| TS-PTDH: 16× thermostable variant of Pseudomonas stutzeri phosphite dehydrogenase (SEQ ID NO:2), engineering template (protein, listed as Pseudomonas stutzeri) MLPKLVITHRVHEEILQLLAPHCELITNQTDSTLTREEILRRCRDAQAMMAFMPDRVDADFLQACPELRVIGCALKGFDNFDVDACTARGVWLTFVPDLLTVPTAELAIGLAVGLGRHLRAADAFVRSGKFRGWQPRFYGTGLDNATVGFLGMGAIGLAMADRLQGWGATLQYHEAKALDTQTEQRLGLRQVACSELFASSDFILLALPLNADTLHLVNAELLALVRPGALLVNPCRGSVVDEAAVLAALERGQLGGYAADVFEMEDWARADRPQQIDPALLAHPNTLFTPHIGSAVRAVRLEIERCAAQNILQALAGERPINAVNRLPKANPAAD | 60 ± 10 µM | 1.03 ± 0.01 s⁻¹ | 740 ± 40 µM | 0.57 ± 0.01 s⁻¹ | > 5000 µM | 53.0 ± 3.4 nmol/min/mg | cofactor dose-dependent response | grew poorly | supported cell growth | – |
| wild-type PTDH: wild-type phosphite dehydrogenase enzyme, literature TTN with NAD^+ (protein, UniProt O69054 1-336, looked up) Phosphonate dehydrogenase: MLPKLVITHRVHDEILQLLAPHCELMTNQTDSTLTREEILRRCRDAQAMMAFMPDRVDADFLQACPELRVVGCALKGFDNFDVDACTARGVWLTFVPDLLTVPTAELAIGLAVGLGRHLRAADAFVRSGEFQGWQPQFYGTGLDNATVGILGMGAIGLAMADRLQGWGATLQYHEAKALDTQTEQRLGLRQVACSELFASSDFILLALPLNADTQHLVNAELLALVRPGALLVNPCRGSVVDEAAVLAALERGQLGGYAADVFEMEDWARADRPRLIDPALLAHPNTLFTPHIGSAVRAVRLEIERCAAQNIIQVLAGARPINAANRLPKAEPAAC | – | – | – | – | – | – | – | – | – | 80,000 |
